Reference: patent CN114591431A (MEISWEI SHANGHAI BIOTECHNOLOGY CO LTD, dated 2022)
Positions count from the first letter of the chain named.

T1: 重组人Protein S his 蛋白(R&D，Cat# 9489-PS) (human, UniProt P07225 42-676, limits assumed)
T1 construct: Bought protein; not shown: His tag
T1 sequence (looked up): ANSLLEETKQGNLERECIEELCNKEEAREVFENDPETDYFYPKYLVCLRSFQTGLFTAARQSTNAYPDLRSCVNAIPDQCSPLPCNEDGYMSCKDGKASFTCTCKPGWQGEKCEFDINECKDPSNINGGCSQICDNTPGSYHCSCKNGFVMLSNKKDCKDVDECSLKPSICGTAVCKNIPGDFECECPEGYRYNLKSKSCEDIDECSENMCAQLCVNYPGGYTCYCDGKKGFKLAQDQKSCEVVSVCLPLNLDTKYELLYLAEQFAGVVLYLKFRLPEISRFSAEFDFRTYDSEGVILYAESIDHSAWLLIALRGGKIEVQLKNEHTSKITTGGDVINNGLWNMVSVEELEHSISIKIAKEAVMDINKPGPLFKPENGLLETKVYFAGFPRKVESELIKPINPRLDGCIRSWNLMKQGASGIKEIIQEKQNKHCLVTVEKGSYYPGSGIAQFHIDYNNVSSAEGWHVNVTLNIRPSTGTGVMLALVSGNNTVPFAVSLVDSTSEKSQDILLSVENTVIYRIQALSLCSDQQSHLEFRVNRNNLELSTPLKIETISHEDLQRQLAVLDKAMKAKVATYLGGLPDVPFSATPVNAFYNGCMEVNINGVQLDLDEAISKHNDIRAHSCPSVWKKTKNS

T2: 重组人GAS6 his 蛋白(Novoprotein，Cat#C01W) (human, UniProt Q14393 31-678, limits assumed)
T2 construct: Bought protein; not shown: His tag
T2 sequence (looked up): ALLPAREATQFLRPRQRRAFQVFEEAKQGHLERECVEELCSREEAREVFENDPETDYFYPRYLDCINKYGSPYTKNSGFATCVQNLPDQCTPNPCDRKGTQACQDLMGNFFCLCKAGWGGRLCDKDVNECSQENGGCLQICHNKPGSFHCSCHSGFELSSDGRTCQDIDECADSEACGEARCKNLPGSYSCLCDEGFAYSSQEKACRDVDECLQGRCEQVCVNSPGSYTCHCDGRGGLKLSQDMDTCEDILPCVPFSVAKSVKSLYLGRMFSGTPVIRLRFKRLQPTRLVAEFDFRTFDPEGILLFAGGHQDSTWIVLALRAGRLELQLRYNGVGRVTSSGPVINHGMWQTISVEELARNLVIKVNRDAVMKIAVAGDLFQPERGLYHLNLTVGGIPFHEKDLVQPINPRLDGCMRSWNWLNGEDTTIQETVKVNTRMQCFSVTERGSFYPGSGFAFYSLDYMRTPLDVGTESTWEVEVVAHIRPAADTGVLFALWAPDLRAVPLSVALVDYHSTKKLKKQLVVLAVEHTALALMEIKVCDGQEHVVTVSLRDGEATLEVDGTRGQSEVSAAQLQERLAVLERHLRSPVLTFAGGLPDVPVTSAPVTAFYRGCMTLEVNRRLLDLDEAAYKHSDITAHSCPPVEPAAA

T3: 鼠GAS6 his蛋白(Sino Biological，Cat#58026-M08H) (mouse, UniProt Q61592 28-674)
T3 construct: Bought protein; also called 小鼠 GAS6; not shown: His tag
T3 sequence (looked up): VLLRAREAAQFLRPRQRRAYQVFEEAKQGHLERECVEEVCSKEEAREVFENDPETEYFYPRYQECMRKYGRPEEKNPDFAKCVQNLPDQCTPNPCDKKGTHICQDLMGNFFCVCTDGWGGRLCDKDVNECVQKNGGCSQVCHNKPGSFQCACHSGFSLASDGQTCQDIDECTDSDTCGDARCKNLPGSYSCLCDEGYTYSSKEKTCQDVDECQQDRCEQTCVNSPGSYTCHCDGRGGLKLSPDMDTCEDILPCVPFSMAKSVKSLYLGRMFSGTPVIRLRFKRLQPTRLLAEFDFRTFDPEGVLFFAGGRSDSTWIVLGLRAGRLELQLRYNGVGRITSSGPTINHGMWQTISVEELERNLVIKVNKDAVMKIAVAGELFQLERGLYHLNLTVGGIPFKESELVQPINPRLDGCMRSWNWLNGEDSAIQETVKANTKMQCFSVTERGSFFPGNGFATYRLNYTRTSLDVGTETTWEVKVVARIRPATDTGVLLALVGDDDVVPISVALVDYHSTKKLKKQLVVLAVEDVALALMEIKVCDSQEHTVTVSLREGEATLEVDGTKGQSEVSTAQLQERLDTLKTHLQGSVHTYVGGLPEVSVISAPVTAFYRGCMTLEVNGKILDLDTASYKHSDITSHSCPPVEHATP

B1: ch18I16C6 (antibody, human IgG1, kappa, V domains shown)
VH: EVKIEESGGGLVKPGGSLKLSCAASGFTFSSYAMSWFRQTPEKRLEWVASISSGGNSYYPDSVKGRFTISRDNARNILYLQMSSLRSEDTAMYYCSRTPDYWGQGTTVTVSS
VL: DVVMTQSPSSMCASLGERVTITCKASQDINTYLSWFQQKPGKSPKTLIYRANRLVDGVPSRFSGSGSGQDYSLTISSLEYEDMGIYYCLQYDEFPFTFGSGTKLEIKR
notes: Human-mouse chimeric antibody, hIgG1 (G1m3) / human kappa (Km3), made in HEK293; also called ch18I16C6-IgG
B2: ch2O18G6 (antibody, human IgG1, kappa, V domains shown)
VH: QVQLQQSGPELVKPGASVKISCKTSGNTFTEYIMHWVKQSHGKSLEWIGGINPKNGGTSYNQKFKGKATLTVDKSSRTAYMELRSLTSEDSAVYYCARVRIPPYVYYAMDYWGQGTTVTVSS
VL: DVVVTQTPLSLPVSLGDQASISCRSSQSIVHSNGNTYLEWYLQKPGQSPKLLIYKVSNRFSGVPDRFSGSGSGTDFTLKISRVEAEDLGVYYCFQGSHVPYTFGGGTKLEIKR
notes: Human-mouse chimeric antibody, hIgG1 (G1m3) / human kappa (Km3), made in HEK293; also called ch2O18G6-IgG
B3: ch15G5E5 (antibody, human IgG1, kappa, V domains shown)
VH: EVQLQQSGPELVKPGASVKMSCKASGYTFTDDYMKWVKQSHGKSLEWIGDINPNNGGTIYNQKFKGKAILTVDKSSSTAYMQLNSLTSEDSAVYYCARRGRGSWGQGTTVTVSS
VL: B2 VL with V3L, V4M, H31Y, K55R, V90I, Y101L, G105A, I111L
notes: Human-mouse chimeric antibody, hIgG1 (G1m3) / human kappa (Km3), made in HEK293; also called ch15G5E5-IgG
B4: ch11B11D12 (antibody, human IgG1, kappa, V domains shown)
VH: QVQLQQSGAELAKPGASVKMSCKASGYTFTRYWIHWVKQRPGQGLEWIGYIIPSTGYTEYSQRFKDKATLTADKSSNTAYMQLSSLTSEDSAVYYCTRYYRYAKYVMDYWGQGTTVTVSS
VL: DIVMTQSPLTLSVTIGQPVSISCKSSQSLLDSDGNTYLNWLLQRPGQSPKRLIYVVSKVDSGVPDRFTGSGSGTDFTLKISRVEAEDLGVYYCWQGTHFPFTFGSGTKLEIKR
notes: Human-mouse chimeric antibody, hIgG1 (G1m3) / human kappa (Km3), made in HEK293; also called ch11B11D12-IgG
B5: ch2D3C6 (antibody, human IgG1, kappa, V domains shown)
VH: DIQLQESGPGLVKPSQSLSLTCSVTGYSITNGYYWNWIRQFPGNKLEWMGYISYDGTNNYNPSLKNRISITRDTSKNQFFLKLNSVTTEDTATYYCARRALWYYAMDYWGQGTSVTVSS
VL: DIVMTQSPASLAVSLGQRATISCKASQSVDYDGESYMNWYQQKPGQPPKLLIYVASNLESGIPARFSGSGSGTDFTLNIHPVEEEDAATYYCQQSDEDPYTFGGGTKLEIKR
notes: Human-mouse chimeric antibody, mouse VH/VL cloned into pTT5_hIgG1.G1m3 / pTT5_hKappa.Km3, made in HEK293; also called ch2D3C6-IgG

What follows are binders tested against T1, 重组人Protein S his 蛋白(R&D，Cat# 9489-PS) (assay: ELISA, coated human Protein S his 1 ug/ml).

EC50 [nM] | Binder
0.008 | B1
0.025 | B2
0.2 | B3

These binders were tested against T2, 重组人GAS6 his 蛋白(Novoprotein，Cat#C01W) (assay: ELISA, coated human GAS6 his 0.5 ug/ml).

EC50 [nM] | Binder
0.18 | B4
0.11 | B1
0.21 | B2
0.16 | B3
0.19 | B5

These binders were tested against T3, 鼠GAS6 his蛋白(Sino …) (assay: ELISA, coated mouse GAS6 his 0.5 ug/ml).

EC50 [nM] | Binder
0.15 | B4
0.1 | B1
0.22 | B2
4.94 | B3
1.42 | B5
